# Experimental data from patent US20110059504A1 (GENERAL HOSPITAL, published 2011).
# T1: human myostatin (human, UniProt O14793 267-375, biotinylated in selections and radioactive assays (site not stated))
# T1 construct: Phage ELISA used both unbiotinylated and biotinylated myostatin; also called biotinylated human myostatin; myostatin-biotin
# T1 sequence (looked up): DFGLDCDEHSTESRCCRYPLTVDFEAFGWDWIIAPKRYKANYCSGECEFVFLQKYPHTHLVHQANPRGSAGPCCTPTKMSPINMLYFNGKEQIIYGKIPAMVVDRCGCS
# Target: T1, human myostatin
# Test: radioactive equilibrium binding assay
# Protocol: Affinities of selected F13β2 binders to biotinylated myostatin were determined in radioactive equilibrium binding assay (FIGS. 11A and 11B; Table 3). ³⁵S-labeled binder proteins from selection pools and single clones were produced in vitro in a rabbit reticulocyte lysate translation kit (Ambion) and purified on M2-agarose (Sigma). Varying concentrations of biotinylated human myostatin (0-100 nM) or other proteins (protein 1: 100 nM; peptide 1: 250 nM; protein 2: 50 nM) were incubated with a constant concentration of the purified binder protein (1 or 2 nM) at 30° C. for 30 min in buffer B (1×PBS, 0.02% Triton X-100 [pH 7.4]). The receptor-binder complexes were captured by using 25 μl of M280 or Protein A (Dynal) (protein 2) magnetic beads for 10 min at room temperature on a Kingfisher instrument (Thermo Fisher Scientific). The beads were washed five times with 100 μl buffer B, and the amount of ³⁵S-methionine remained on the beads was measured by scintillation counting. Data were analyzed by using the GraphPad Prism software (GraphPad Software, Inc., San Diego, Calif.), fitted with a one-site, nonlinear binding equation. For inhibition assay the binding of ³⁵S-labeled proteins to 20 or 25 nM of biotinylated human myostatin was performed in the presence of varying concentrations of inhibitor (human activin receptor IIB/Fc chimera (R&D Systems, Minneapolis, Minn.) (0-250 nM); protein 1 (100 nM), peptide 1 (250 nM), protein 2 (50 nM); proteins, produced in E. coli, M17, M7, M29, M21, M1-1, WT F13β2 (500 nM)).
Binder,B max,Kd
"39633-D6 (designed binder, group M3-A50; ΔS82, M83R; also called M020 (clone ID)) MTIPEIIIKVRGTQVVGSDMTVIVEFTNPFKETLRNVWVHLDGPGVTRPMKKMFCEIRPNSIVQWEEVVRPWVSGHRKLIARCSLSPWHVYGELDVQIQRRDYKDDDDK",79.6%,20.3 nM
"39633-G6 (designed binder, group M3-A50; FG loop printed -TLRPW (one residue deleted), no scaffold mutation printed; also called M18 (clone ID)) MTIPEIIIKVRGTQVVGSDMTVIVEFTNPFKETLRSVWVHLDGPGVTRPMKKMFREIPPKTTVQWEEVVRPWVSGHRKLIASMTLRPWHVYGELDVQIQRRDYKDDDDK",75.1%,19.7 nM
"39908-A7 (designed binder, group M3-A50; ΔS82, M83R; also called M24 (clone ID)) MTIPEIIIKVRGTQVVGSDMTVIVEFSNPFKETLRNVWVHLDGPGVTRPMKKMFCEIRPNSIVQWEEVVRPWVSGHRKLIARMTLRPWHVYGELDVQIQRRDYKDDDDK",109%,20.1 nM
"39908-A3 (designed binder, group M3-A50; ΔS82, M83R; also called M09 (clone ID)) MTIPEIIIKVRGTQVVGSDMTVIVEFTNPFKETLRSVWVHLDGPGVTRPMKKMFCEIRPNRIVQWEEVVRPWVSGHRKLIARCSLSPWHVYGELDVQIQRRDYKDDDDK",57.2%,11 nM
"39908-B2 (designed binder, group M3-A50; ΔS82, M83R; also called M07 (clone ID)) MTIPEIIIKVRGTQVVGSDMTVIVEFTNPFKETLRSVWVHLDGPGVTRPMKKMFREIPPKTTVQWEEVVRPWVSGHRKLIARCQLLPWHVYGELDVQIQRRDYKDDDDK",75.9%,27.1 nM
"39908-A2 (designed binder, group M3-A50; ΔS82, M83R; also called M03 (clone ID)) MTIPEIIIKVRGTQVVGSDMTVIVEFTNPFKETLRNVWVHLDGPGVTRPMKKMFRDIRPKTKVQWEEVVRPWVSGHRKLIARCSLSPWHVYGELDVQIQRRDYKDDDDK",68.5%,15.2 nM
"39633-F5 (I3Y, M83I) (designed binder, group M1-A50; V91L, I3Y, M83I) MTYPEIIIKVRGTQVVGSDMTVIVEFTNPFKETLRSVWVHLDGPGVTRPMKKMFREIPPKTTVQWEEVVRPWVSGHRKLIASIRTQYLIHLYGELDVQIQRRDYKDDDDK",69.7%,32.1 nM

# Further binders by falling Kd, results first:
B max,Kd,Binder
21%,27.3 nM,"39633-E2 (designed binder, group M1-A50; V91L) MTIPEIIIKVRGTQVVGSDMTVIVEFSNPFKETLRNVWVHLDGPGVTRPMKKMFCEVRPNSVVQWEEVVRPWVSGHRKLIASMRTQYLIHLYGELDVQIQRRDYKDDDDK"
28.5%,26.8 nM,"39633-F4 (designed binder, group M1-A50; V91L) MTIPEIIIKVRGTQVVGSDMTVIVEFSNPFKETLRNVWVHLDGPGVTRPMKKMFCEIRPNSIVQWEEVVRPWVSGHRKLIASMRTQYLIHLYGELDVQIQRRDYKDDDDK"
52.2%,19.7 nM,"39908-C6 (designed binder, group M3-A50; ΔS82, M83R; also called M05 (clone ID)) MTIPEIIIKVRGTQVVGSDMTVIVEFTNPFKETLRSVWVHLDGPGVTRPMKKMFCEIRPNSIVQWEEVVRPWVSGHRKLIARCSLSPWHVYGELDVQIQRRDYKDDDDK"
78.3%,19.4 nM,"39633-A5 (V46I) (designed binder, group M3-A50; ΔS82, M83R, V46I) MTIPEIIIKVRGTQVVGSDMTVIVEFSNPFKETLRNVWVHLDGPGITRPMKKMFCEVRPNSIVQWEEVVRPWVSGHRKLIARCSLSPWHVYGELDVQIQRRDYKDDDDK"
50.2%,12 nM,"39908-A1 (designed binder, group M3-A50; ΔS82, M83R; also called M02 (clone ID)) MTIPEIIIKVRGTQVVGSDMTVIVEFSNPFKETLRNVWVHLDGPGVTRPMKKMFCEIRPNSIVQWEEVVRPWVSGHRKLIARCSLSPWHVYGELDVQIQRRDYKDDDDK"
6.14%,9.93 nM,"39633-B3 (designed binder, group M1-A50; V91L) MTIPEIIIKVRGTQVVGSDMTVIVEFTNPLSQTLSAVWVHLDGPGVTRPMKKMFREIPPKTTVQWEEVVRPWVSGHRKLIASMRTQYLIHLYGELDVQIQRRDYKDDDDK"
